Laboratory results reported in PMC11872457 (2025).

Target: T1, SARS-CoV-2 replicase polyprotein 1ab (CoV-YL8; identical in HKU1 and NL63) peptide on HLA-B*35:03 (human)
T1 peptide: YPDPSRIL
Experiment: cytokine release

B1: CoV-YL8 TCR (TCR)
alpha TRAV1-1 TRAJ4 CDR3: CAVRGISGGYNKLIF
beta TRBV19 TRBJ1-6 CDR3: CASSIEGSYNSPLHF
binding result: recognises
